Data as given in ChEMBL document CHEMBL4371014, “Novel Allosteric Ligands of γ-Aminobutyric Acid Transporter 1 (GAT1) by MS Based Screening of Pseudostatic Hydrazone Libraries” (J Med Chem, 2018).

Legend:
[1] = compound: O=C(O)[C@H]1CNC[C@@H](CN/N=C/c2ccc(-c3cccc4ccccc34)o2)C1; experiment: (§1) Non-competitive inhibition of human GAT1 expressed in COS cells assessed as reduction in [2H6]GABA uptake by measuring [2H6]GABA Vmax at 10 uM preincubated for 25 mins followed by [3H]GABA addition and measured after 4 mins by liquid scintillation counting method (reference value: 570 +/- 53 amol/cell.min); format: cell-based
[2] = compound: O=C(O)[C@H]1CNC[C@@H](CN/N=C/c2ccc(-c3cc(C(F)(F)F)cc(C(F)(F)F)c3)o2)C1; experiment: as §1; format: cell-based
[3] = substrate: Cc1ccsc1C(=CCCN1CCC[C@@H](C(=O)O)C1)c1sccc1C; conditions: Homo sapiens; 100 nM
[4] = substrate: Cc1ccsc1C(=CCCN1CCC[C@@H](C(=O)O)C1)c1sccc1C; conditions: Homo sapiens; 300 nM
[5] = substrate: Cc1ccsc1C(=CCCN1CCC[C@@H](C(=O)O)C1)c1sccc1C; conditions: Homo sapiens; 300 nM; remark: listed apart in the source
Description: Mixed-type inhibition of human GAT1 expressed in COS cells assessed as reduction in [2H6]GABA uptake by measuring [2H6]GABA Vmax at 300 nM preincubated for 25 mins followed by [3H]GABA addition and measured after 4 mins by liquid scintillation counting method

[6] = compound: O=C(O)[C@H]1CNC[C@@H](CN/N=C/c2ccc(-c3cccc4ccccc34)o2)C1; experiment: as §1, with “30” for “10”; format: cell-based
[7] = compound: O=C(O)[C@H]1CNC[C@@H](CN/N=C/c2ccc(-c3cc(C(F)(F)F)cc(C(F)(F)F)c3)o2)C1; experiment: as §1, with “30” for “10”; format: cell-based
[8] = compound: O=C(O)[C@H]1CNC[C@@H](CN/N=C/c2ccc(-c3cccc4ccccc34)o2)C1; experiment: (§2) Non-competitive inhibition of human GAT1 expressed in COS cells assessed as reduction in [2H6]GABA uptake by measuring [2H6]GABA Km(app) at 10 uM preincubated for 25 mins followed by [3H]GABA addition and measured after 4 mins by liquid scintillation counting method (reference value: 12 +/- 1.2 uM); format: cell-based
[9] = compound: O=C(O)[C@H]1CNC[C@@H](CN/N=C/c2ccc(-c3cc(C(F)(F)F)cc(C(F)(F)F)c3)o2)C1; experiment: as §2; format: cell-based
[10] = compound: O=C(O)[C@H]1CNC[C@@H](CN/N=C/c2ccc(-c3cccc4ccccc34)o2)C1; experiment: (§3) Non-competitive inhibition of human GAT1 expressed in COS cells assessed as reduction in [2H6]GABA uptake by measuring [2H6]GABA Km(app) at 30 uM preincubated for 25 mins followed by [3H]GABA addition and measured after 4 mins by liquid scintillation counting method (reference value: 12 +/- 1.2 uM); format: cell-based
[11] = compound: O=C(O)[C@H]1CNC[C@@H](CN/N=C/c2ccc(-c3cc(C(F)(F)F)cc(C(F)(F)F)c3)o2)C1; experiment: as §3; format: cell-based
[12] = substrate: Cc1ccsc1C(=CCCN1CCC[C@@H](C(=O)O)C1)c1sccc1C; conditions: Homo sapiens; 100 nM; remark: listed apart in the source

B1: Sodium- and chloride-dependent GABA transporter 1 (Homo sapiens), P30531 (protein)
chain: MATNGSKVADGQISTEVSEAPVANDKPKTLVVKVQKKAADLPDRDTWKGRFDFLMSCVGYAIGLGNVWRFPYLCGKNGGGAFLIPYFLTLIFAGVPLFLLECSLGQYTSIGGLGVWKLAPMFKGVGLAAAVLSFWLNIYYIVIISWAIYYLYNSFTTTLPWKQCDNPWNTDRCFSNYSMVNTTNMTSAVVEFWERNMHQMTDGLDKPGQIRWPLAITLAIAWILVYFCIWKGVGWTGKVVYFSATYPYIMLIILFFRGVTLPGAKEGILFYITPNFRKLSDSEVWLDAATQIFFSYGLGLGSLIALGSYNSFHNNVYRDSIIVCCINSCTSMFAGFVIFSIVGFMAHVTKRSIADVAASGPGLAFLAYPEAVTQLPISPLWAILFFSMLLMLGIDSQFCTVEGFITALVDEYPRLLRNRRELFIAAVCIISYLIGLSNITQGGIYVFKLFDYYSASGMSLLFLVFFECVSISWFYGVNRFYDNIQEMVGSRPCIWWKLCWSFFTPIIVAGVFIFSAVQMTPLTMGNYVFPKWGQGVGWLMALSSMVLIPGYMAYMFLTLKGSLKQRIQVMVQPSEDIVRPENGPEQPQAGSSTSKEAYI
[1]
  Vmax (amol/cell.min): 332
[2]
  Vmax (amol/cell.min): 341
[3]
  Vmax (amol/cell.min): 491
[4]
  Km: 29.4 µM
[5]
  Vmax (amol/cell.min): 419
[6]
  Vmax (amol/cell.min): 165
[7]
  Vmax (amol/cell.min): 183
[8]
  Km: 10.1 µM
[9]
  Km: 8.2 µM
[10]
  Km: 5.7 µM
[11]
  Km: 5.1 µM
[12]
  Km: 19.7 µM
